Experimental findings from patent publication CN1997751A (AGENSYS INC, dated 2007) are described below.

T1: PSCA (prostate stem cell antigen), human, PSCA v.1 (human, UniProt O43653 12-83)
T1 construct: whole, on cells; also called PSCA变体1; 人PSCA
T1 sequence (looked up): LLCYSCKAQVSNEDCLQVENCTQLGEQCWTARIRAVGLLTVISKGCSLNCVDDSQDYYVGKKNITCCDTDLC

B1: Ha1-4.37 (antibody, V domains shown)
VH: PGALQESGPGLVRPSQTLSLTCTVSGGSISSGGTYYWIWIRQHPGKGLEWIGYIYYSGSTYYNPSLKSRVTISVDTSKNQFSLKLSSVTAADTAVYYCARDGITMVRGISGGMDVWGQGTTVTVSS
VL: ASVGDRVTITCRASQSISSHLNWYQQKPGKAPKLLIYAASSLQSGVPSRFSGSGSGTDFTLSISSLQPEDFATYFCQQSYSIPRTFGQGTKVEITR
notes: ATCC PTA-6702
B2: Ha1-5.99 (antibody, IgG2, V domains shown)
VH: QVHLQQWGAGLLKPSETLSLTCAVYGGSFSGYYWSWIRQPPGKGLEWIGEINHSGSTSYKPSLKSRVTVSVDTSKNQFSLKLSYVTAADTAVYYCARDRGDYGDFLFDYWGQGTLVTVSS
VL: SPGERATLSCRASQSIGSTYLAWYQQKPGQAPRLLIYGASSRATGIPERFSGSGSGTDFTLTISGLEPEDFAVFYCQQCGSSPPTFGQGTKVEIKR
notes: ATCC PTA-6703; also called Ha1-5.99.1; HA1-5.99.1
B3: Ha1-4.117 (antibody, V domains shown)
VH: QVQLQESGPGLVKPSQTLSLTCTVSGGSISSGGYYWIWIRQHPGKGLEWIGYIYYNGNTYYNPSLKSRVTMSVDTSKNQFSLKLSSVTAADTAVYYCARDGITMIRGYYYGMDVWGQGTTVTVSS
VL: QLTQSPSSVSASVGDRVTITCRASRGISSWLAWYQQKPGKAPKLLIYTASSLQSGVPSRFSGSGSGTDFTLTISSLQPEDFATYYCQQAYSFPRTFGQGTKVEIKR
B4: Ha1-1.16 (antibody, V domains shown)
VH: QVQLQQSGPGLVKPSQTLSLTCAISGDSVSSNSAAWNWIRQSPSRGLEWLGRTYYRSKWYNGYAVSVKSRMTINPDTSKNQFSLQLNSVTPEDTAVYYCARERLGELYGMDVWGQGTTVTVSS
VL: QLTQSPDSLAVSLGERATINCKSSQNILYRSSKKNHLVWYQQKPGQPPKLLIYWASTRESGVPARFSGSGSGTDFTLTISTLQAEDVAVYYCQQYYSTPPTFGQGTRLEIKR
notes: ATCC PTA-6698; also called Ha1-1.16.1

The target in this assay is T1, PSCA (prostate stem cell antigen), …. The assay can be described thus: FACS titration on SW780 cells, sigmoidal dose-response fit (Graphpad Prism).
In general, Kd refers to the equilibrium constant for the complex coming apart. Read a high Kd as a looser complex. B1: the Kd amounted to 0.23 nM.
Regarding B2, the equilibrium dissociation constant (Kd) turned out to be 0.28 nM.
With B3, the dissociation constant Kd turned out to be 0.32 nM.
B4 came in with a Kd of 6.91 nM.
